In PMC2195822 (The Journal of Experimental Medicine, 2000):
Where two headings read alike, the source gives them in different places. No end group written: not given here.

B1: soluble IL-2Rβ 31–230 (residues 31–230 of the IL-2Rβ chain, most of the extracellular part) (domain or fragment, human, UniProt P14784 31-230, looked up)
chain: TSQFTCFYNSRANISCVWSQDGALQDTSCQVHAWPDRRRWNQTCELLPVSQASWACNLILGAPDSQKLTTVDIVTLRVLCREGVRWRVMAIQDFKPFENLRLMAPISLQVVHVETHRCNISWEISQASHYFERHLEFEARTLSPGHTWEEAPLLTLKQKQEWICLETLTPDTQYEFQVRVKPLQGEFTTWSPWSQPLAFR

Columns and labels:
[1] = Diffusion–sedimentation equilibrium; type: physicochemical; settings: 150 μM peptide
[2] = target: the molecule itself; test: AUC
[3] = target: the molecule itself; test: AUC; remark: listed apart in the source
[4] = target: the molecule itself; test: AUC; remark: listed apart in the source
[5] = target: the molecule itself; test: AUC; remark: listed apart in the source

Molecule	stoichiometry N [4]	stoichiometry N [5]	further results
SSTKKTQLQLQ [p5–15]			quaternary structure at 150 μM [1]: dimers
B1			Kd [2]: 3000 nM; stoichiometry N [2]: 2
TQLQLEHLLLDLQMILNGINN [IL-2 peptide p10–30]			stoichiometry N [3]: 4
APTSSSTKKTQLQLEHLLLDLQMILNGINNC [IL-2 peptide p1–30Cys]	4	8	
APTSSSTKKTQLQLEHLLLDLQMILNGINN-NH2 [peptide p1–30 (amino acids 1–30 of human IL-2, covering the entire α helix A)]		8	
APTSSSTKKTQLQLEHLLLDLQMILNGINNC(fluorescein)-NH2 [p1–30Cys labeled on the terminal Cys31 with a fluorescein group (p1–30Cys-FLC)]	4	8	
